From patent US20250277023A1 (published 2025)

T1: TIGIT (on CHO-TIGIT cells) (UniProt Q495A1 22-244)
T1 chain: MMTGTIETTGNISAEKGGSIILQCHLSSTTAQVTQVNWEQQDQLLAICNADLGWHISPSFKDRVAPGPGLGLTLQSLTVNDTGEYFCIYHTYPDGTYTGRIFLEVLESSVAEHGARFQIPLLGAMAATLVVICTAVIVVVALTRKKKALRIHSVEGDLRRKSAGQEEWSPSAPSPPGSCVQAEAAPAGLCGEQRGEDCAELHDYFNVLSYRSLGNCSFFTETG


Tests used:
[1] = biological target: T1, TIGIT (on CHO-TIGIT cells); test: FACS binding; Fig. 17
[2] = biological target: T2, PD-L1 (on CHO-PD-L1 cells) (UniProt Q9NZQ7 19-290); test: FACS binding; Fig. 24
T2 sequence (Q9NZQ7 19-290): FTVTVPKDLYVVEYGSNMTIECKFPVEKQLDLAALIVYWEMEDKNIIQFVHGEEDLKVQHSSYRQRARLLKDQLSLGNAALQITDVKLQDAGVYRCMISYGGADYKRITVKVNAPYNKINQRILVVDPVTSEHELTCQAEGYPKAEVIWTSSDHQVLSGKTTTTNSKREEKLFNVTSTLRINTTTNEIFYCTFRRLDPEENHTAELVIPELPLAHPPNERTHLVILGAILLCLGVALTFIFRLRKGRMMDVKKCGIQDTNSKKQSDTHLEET

[3] = biological target: T2, PD-L1 (on CHO-PD-L1 cells); test: FACS binding; Fig. 25
[4] = biological target: T2, PD-L1 (on CHO-PD-L1 cells); test: FACS binding; Fig. 22
[5] = biological target: T2, PD-L1 (on CHO-PD-L1 cells); test: FACS binding; Fig. 21

EC50 [2] [nM]	EC50 [3] [nM]	EC50 [5] [nM]	Binder	also measured
			R0774 (Tigit monoclonal antibody) (antibody, V domains shown) VH: QVQLVQSGAEVKKPGSSVKVSCKASGYSFTSYWMNWVRQAPGQGLEWIGMIRPSDSETRLNQMFKDRVTITVDKSTSTAYMELSSLRSEDTAVYYCAGIHDYGHGAYWGQGTLVTVSS VL: DIQMTQSPSSLSASVGDRVTITCRASENIYSNLAWYQQKPGKSPKLLVYAASHLPDGVPSRFSGSGSGTDYSLTISSLQPEDFATYYCQHFWGTPRTFGQGTKLEIK	EC50 [1]: 0.678 nM
2	2.08		R1072: TIGIT_VH_IL15RA/TIGIT_VL_IL15/PD-L1-Fab (bispecific antibody) chain 1: QVQLVQSGAEVKKPGSSVKVSCKASGYSFTSYWMNWVRQAPGQGLEWIGMIRPSDSETRLNQMFKDRVTITVDKSTSTAYMELSSLRSEDTAVYYCAGIHDYGHGAYWGQGTLVTVSSGGGGSGGGGSGGGGSGGGGSGITCPPPMSVEHADIWVKSYSLYSRERYICNSGFKRKAGTSSLTECVLNKATNVAHWTTPSLKCIRDPALVHQRPAPPSTVTTAGVTPQPESLSPSGKEPAASSPSSNNTAATTAAIVPGSQLMPSKSPSTGTTEISSHESSHGTPSQTTAKNWELTASASHQPPGVYPQGHSDTTEPKSSDKTHTCPPCPAPELLGGPSVFLFPPKPKDTLMISRTPEVTCVVVDVSHEDPEVKFNWYVDGVEVHNAKTKPREEQYNSTYRVVSVLTVLHQDWLNGKEYKCKVSNKALPAPIEKTISKAKGQPREPQVYTLPPSREEMTKNQVSLTCRVKGFYPSDIAVEWESNGQPENNYKTTPPVLKSDGSFFLASKLTVDKSRWQQGNVFSCSVMHEALHNHYTQKSLSLSPGK chain 2: DIQMTQSPSSLSASVGDRVTITCRASENIYSNLAWYQQKPGKSPKLLVYAASHLPDGVPSRFSGSGSGTDYSLTISSLQPEDFATYYCQHFWGTPRTFGQGTKLEIKGGGGSGGGGSGGGGSGGGGSGNWVNVISDLKKIEDLIQSMHIDATLYTESDVHPSCKVTAMKCFLLELQVISLESGDASIHNTVQDLIILANNSLSSNGNVTESGCKECEELEEKNIKEFLQSFVHIVQMFINTS heavy: QVQLQESGPGLVKPSETLSLTCAVYGDSITSGYWNWIRKPPGKGLEYIGYISYTGSTYQNPSLKSRITMSRDTSKNQYYLKLSSVTAADTAVYYCARSRAWIRTYFDYWGQGTLVTVSSASTKGPSVFPLAPSSKSTSGGTAALGCLVKDYFPEPVTVSWNSGALTSGVHTFPAVLQSSGLYSLSSVVTVPSSSLGTQTYICNVNHKPSNTKVDKRVEPKSCDKTHTCPPCPAPELLGGPSVFLFPPKPKDTLMISRTPEVTCVVVDVSHEDPEVKFNWYVDGVEVHNAKTKPREEQYNSTYRVVSVLTVLHQDWLNGKEYKCKVSNKALPAPIEKTISKAKGQPREPQVYTLPPSREEMTKNQVSLWCLVKGFYPSDIAVEWESNGQPENNYDTTPPVLDSDGSFFLYSDLTVDKSRWQQGNVFSCSVMHEALHNHYTQKSLSLSPGK light: DIQMTQSPSSLSASVGDRVTITCSVSSSISSSNLHWYQQKPGKAPKPWIYGTSNLASGVPSRFSGSGSGTDYTLTISSLQPEDFATYYCQQWSSYPLTFGQGTKLEIKRTVAAPSVFIFPPSDEQLKSGTASVVCLLNNFYPREAKVQWKVDNALQSGNSQESVTEQDSKDSTYSLSSTLTLSKADYEKHKVYACEVTHQGLSSPVTKSFNRGEC	EC50 [4]: 3.73 nM
	1.56		R1109: TIGIT_VH_IL15RA (sushi65)/TIGIT_VL_IL15/PD-L1-Fab (bispecific antibody) chain 1: QVQLVQSGAEVKKPGSSVKVSCKASGYSFTSYWMNWVRQAPGQGLEWIGMIRPSDSETRLNQMFKDRVTITVDKSTSTAYMELSSLRSEDTAVYYCAGIHDYGHGAYWGQGTLVTVSSGGGGSGGGGSGGGGSGGGGSGITCPPPMSVEHADIWVKSYSLYSRERYICNSGFKRKAGTSSLTECVLNKATNVAHWTTPSLKCIREPKSSDKTHTCPPCPAPELLGGPSVFLFPPKPKDTLMISRTPEVTCVVVDVSHEDPEVKFNWYVDGVEVHNAKTKPREEQYNSTYRVVSVLTVLHQDWLNGKEYKCKVSNKALPAPIEKTISKAKGQPREPQVYTLPPSREEMTKNQVSLTCRVKGFYPSDIAVEWESNGQPENNYKTTPPVLKSDGSFFLASKLTVDKSRWQQGNVFSCSVMHEALHNHYTQKSLSLSPGK chain 2: DIQMTQSPSSLSASVGDRVTITCRASENIYSNLAWYQQKPGKSPKLLVYAASHLPDGVPSRFSGSGSGTDYSLTISSLQPEDFATYYCQHFWGTPRTFGQGTKLEIKGGGGSGGGGSGGGGSGGGGSGNWVNVISDLKKIEDLIQSMHIDATLYTESDVHPSCKVTAMKCFLLELQVISLESGDASIHNTVQDLIILANNSLSSNGNVTESGCKECEELEEKNIKEFLQSFVHIVQMFINTS heavy: QVQLQESGPGLVKPSETLSLTCAVYGDSITSGYWNWIRKPPGKGLEYIGYISYTGSTYQNPSLKSRITMSRDTSKNQYYLKLSSVTAADTAVYYCARSRAWIRTYFDYWGQGTLVTVSSASTKGPSVFPLAPSSKSTSGGTAALGCLVKDYFPEPVTVSWNSGALTSGVHTFPAVLQSSGLYSLSSVVTVPSSSLGTQTYICNVNHKPSNTKVDKRVEPKSCDKTHTCPPCPAPELLGGPSVFLFPPKPKDTLMISRTPEVTCVVVDVSHEDPEVKFNWYVDGVEVHNAKTKPREEQYNSTYRVVSVLTVLHQDWLNGKEYKCKVSNKALPAPIEKTISKAKGQPREPQVYTLPPSREEMTKNQVSLWCLVKGFYPSDIAVEWESNGQPENNYDTTPPVLDSDGSFFLYSDLTVDKSRWQQGNVFSCSVMHEALHNHYTQKSLSLSPGK light: DIQMTQSPSSLSASVGDRVTITCSVSSSISSSNLHWYQQKPGKAPKPWIYGTSNLASGVPSRFSGSGSGTDYTLTISSLQPEDFATYYCQQWSSYPLTFGQGTKLEIKRTVAAPSVFIFPPSDEQLKSGTASVVCLLNNFYPREAKVQWKVDNALQSGNSQESVTEQDSKDSTYSLSSTLTLSKADYEKHKVYACEVTHQGLSSPVTKSFNRGEC	
2.01	2.91		R0968 (PD-L1 monoclonal antibody) (antibody, V domains shown) VH: QVQLQESGPGLVKPSETLSLTCAVYGDSITSGYWNWIRKPPGKCLEYIGYISYTGSTYQNPSLKSRITMSRDTSKNQYYLKLSSVTAADTAVYYCARSRAWIRTYFDYWGQGTLVTVSS VL: DIQMTQSPSSLSASVGDRVTITCSVSSSISSSNLHWYQQKPGKAPKPWIYGTSNLASGVPSRFSGSGSGTDYTLTISSLQPEDFATYYCQQWSSYPLTFGCGTKLEIK	
		0.43	R0952: TIGIT_VH_IL15/TIGIT_VL_IL15RA/PD-L1-Fab (bispecific antibody) chain 1: not shown chain 2: DIVMTQTPASVEVAVGGTVTIKCQASQSISSYLNWYQQKPGQPPKLLIYDALKLASGVPSRFSGSGSGTEYTLTISGVESADAATYYCQQEHSVGNVDNVFGGGTEVVVKGGGGSGGGGSGGGGSGGGGSGITCPPPMSVEHADIWVKSYSLYSRERYICNSGFKRKAGTSSLTECVLNKATNVAHWTTPSLKCIRDPALVHQRPAPPSTVTTAGVTPQPESLSPSGKEPAASSPSSNNTAATTAAIVPGSQLMPSKSPSTGTTEISSHESSHGTPSQTTAKNWELTASASHQPPGVYPQGHSDTT heavy: EVQLLESGGGLVQPGGSLRLSCAASGFTFSSYIMMWVRQAPGKGLEWVSSIYPSGGITFYADTVKGRFTISRDNSKNTLYLQMNSLRAEDTAVYYCARIKLGTVTTVDYWGQGTLVTVSSAKTTAPSVYPLAPVCGDTTGSSVTLGCLVKGYFPEPVTLTWNSGSLSSGVHTFPAVLQSDLYTLSSSVTVTSSTWPSQSITCNVAHPASSTKVDKKIEPRGPTIKPCPPCKCPAPNLLGGPSVFIFPPKIKDVLMISLSPIVTCVVVDVSEDDPDVQISWFVNNVEVHTAQTQTHREDYNSTLRVVSALPIQHQDWMSGKEFKCKVNNKDLPAPIERTISKPKGSVRAPQVYVLPPPEEEMTKKQVTLTCRVTDFMPEDIYVEWTNNGKTELNYKNTEPVLKSDGSYFMASKLRVEKKNWVERNSYSCSVVHEGLHNHHTTKSFSRTPGK light: QSALTQPASVSGSPGQSITISCTGTSSDVGGYNYVSWYQQHPGKAPKLMIYDVSNRPSGVSNRFSGSKSGNTASLTISGLQAEDEADYYCSSYTSSSTRVFGTGTKVTVLRTDAAPTVSIFPPSSEQLTSGGASVVCFLNNFYPKDINVKWKIDGSERQNGVLNSWTDQDSKDSTYSMSSTLTLTKDEYERHNSYTCEATHKTSTSPIVKSFNRNEC	
		0.46	R0951: TIGIT_VH_IL15RA/TIGIT_VL_IL15/PD-L1-Fab (bispecific antibody) chain 1: QVQLESEGGLFKPTDTLTLTCTVSGSSLSSSYMSWVRQAPGKGLEWIGIIGSNGNTYYANWAKGRFTISKTSTTVELKITSPTTEDTATYFCARGGYRTSGMDPWGPGTLVTVSSGGGGSGGGGSGGGGSGGGGSGITCPPPMSVEHADIWVKSYSLYSRERYICNSGFKRKAGTSSLTECVLNKATNVAHWTTPSLKCIRDPALVHQRPAPPSTVTTAGVTPQPESLSPSGKEPAASSPSSNNTAATTAAIVPGSQLMPSKSPSTGTTEISSHESSHGTPSQTTAKNWELTASASHQPPGVYPQGHSDTTEPRGPTIKPCPPCKCPAPNLLGGPSVFIFPPKIKDVLMISLSPIVTCVVVDVSEDDPDVQISWFVNNVEVHTAQTQTHREDYNSTLRVVSALPIQHQDWMSGKEFKCKVNNKDLPAPIERTISKPKGSVRAPQVYVLPPPEEEMTKKQVTLWCMVTDFMPEDIYVEWTNNGKTELNYDNTEPVLDSDGSYFMYSDLRVEKKNWVERNSYSCSVVHEGLHNHHTTKSFSRTPGK chain 2: not shown heavy: EVQLLESGGGLVQPGGSLRLSCAASGFTFSSYIMMWVRQAPGKGLEWVSSIYPSGGITFYADTVKGRFTISRDNSKNTLYLQMNSLRAEDTAVYYCARIKLGTVTTVDYWGQGTLVTVSSAKTTAPSVYPLAPVCGDTTGSSVTLGCLVKGYFPEPVTLTWNSGSLSSGVHTFPAVLQSDLYTLSSSVTVTSSTWPSQSITCNVAHPASSTKVDKKIEPRGPTIKPCPPCKCPAPNLLGGPSVFIFPPKIKDVLMISLSPIVTCVVVDVSEDDPDVQISWFVNNVEVHTAQTQTHREDYNSTLRVVSALPIQHQDWMSGKEFKCKVNNKDLPAPIERTISKPKGSVRAPQVYVLPPPEEEMTKKQVTLTCRVTDFMPEDIYVEWTNNGKTELNYKNTEPVLKSDGSYFMASKLRVEKKNWVERNSYSCSVVHEGLHNHHTTKSFSRTPGK light: QSALTQPASVSGSPGQSITISCTGTSSDVGGYNYVSWYQQHPGKAPKLMIYDVSNRPSGVSNRFSGSKSGNTASLTISGLQAEDEADYYCSSYTSSSTRVFGTGTKVTVLRTDAAPTVSIFPPSSEQLTSGGASVVCFLNNFYPKDINVKWKIDGSERQNGVLNSWTDQDSKDSTYSMSSTLTLTKDEYERHNSYTCEATHKTSTSPIVKSFNRNEC	
